According to article PMC10472834 (Cell metabolism, 2021):

Target: the molecule itself
Assay: cross-linking

B1: ME2-Flag catalytic-inactive mutant (CM), stably expressed in MOLM14 cells (natural protein)
chain: not shown
- stoichiometry N: 2
